From patent publication US20180112193A1, “CSF1 THERAPEUTICS” (University Court Of The University Of Edinburgh, priority 2013, published 2018)

Key:
[1] = system: csf1r-EGFP (MacGreen) mice; test: Fc-CSF-1 injected subcutaneously into csf1r-EGFP mice on 4 days, sacrificed on the 5th day; format: in vivo, mouse
Experimental: Mice were injected with Fc-CSF-1 subcutaneously on each of 4 days and sacrificed on the 5th day. The mice were csf1r-EGFP (MacGreen) mice on the C57BI/6 background. Tissue processing and immunohistochemistry were carried out as described in (Alikhan et al Am J. Pathol. 179, 1243-1256, 2011 and Macdonald et al Blood. 116, 3955-3963, 2010). A comparison of the effect of recombinant pig CSF-1 or Fc-CSF-1 on the proliferation of mouse bone marrow cells or the Ba/F3 CS1R reporter cell line using the assay described in Gow et al Cytokine.

neonatal pigs = test: Fc-CSF-1 efficacy/safety treatment trial in neonatal pigs; format: in vivo, pig
Experimental: Further tests were conducted to assess Fc-CSF-1 efficacy/safety treatment trial in neonatal pigs. At the two doses tested (0.12 mg/Kg×3 and 0.5 mg/Kg×6) the Fc-CSF-1 treatment had little effect on body weight gain at any time point. […] It was noted that in the control animals, that the total blood cell count, monocyte count and granulocyte count declines in the first two weeks of life in the pig.

C57BI6 male mice = test: Hepatic phagocytic ability after partial hepatectomy (gene analysis, bead clearance assay, ex vivo imaging); format: in vivo, mouse
Experimental: C57BI6 male mice (8-10 weeks) underwent either partial hepatectomy (⅔ resection) or paracetamol intoxication (350 mg/kg intraperitoneal following overnight fast). CSF1-Fc was administered as previous (0.75 mg/kg). Gene analysis was performed using Qiagen Quantitect Primers (MSR1 and MARCO) and related to GAPDH level for each sample. […] 0.1 mls of 5000 IU/ml heparin solution was infused to prevent blockage of the catheter. 100 μl of red fluorescent bead solution (1:5 Latex beads 1.0 μm, fluorescent red, SIGMA-ALDRICH®) was infused through the cannula (1:2 solution for assay following paracetamol injury). 20 mcl of blood was removed from the cannula every two minutes starting from 1 minute post injection for 15 minutes. Blood was immediately fixed with 300 μl FACS-Lysing solution (BD Biosceinces). After 15 minutes mice were perfused with 15 mls 0.9% saline through the IVC cannula after dividing the portal vein for outflow. Organs were then removed (Liver, spleen, lungs, kidney, brain) and imaged with a Kodak In-Vivo Multispectral FX image station (Excitation: 550 nm; Emission: 600 nm; Exposure 1 sec; f-stop 2.8). Subsequently blood samples were analysed using a LSR-Fortessa™ flow cytometer (BD Biosciences) with fluorescent beads detected on the blue channel (B695/40) by a 1 minute sample collection on low flow rate setting.

male C57BI6 mice = test: Murine models of acute and acute-on-chronic liver injury (all three injury models); format: in vivo
Experimental: Forty-eight male C57BI6 mice aged 10-12 weeks underwent either 2/3 partial hepatectomy, paracetamol intoxication or chronic liver injury plus 2/3 partial hepatectomy. 2/3 partial hepatectomy was performed by ligating the left lobe and left and right median lobes. Paracetamol intoxication was performed by intraperitoneal administration of 350 mg/kg paracetamol dissolved in phosphate buffered saline (PBS). Chronic liver injury plus 2/3 partial hepatectomy was performed by eight weeks intraperitoneal carbon tetrachloride administration 1 mcl/g twice weekly dissolved in olive oil followed by ⅔ partial hepatectomy as described above. […] Control mice (n=8 per injury model) received subcutaneous PBS of appropriate volume. All mice were culled on day 4 following injury (partial hepatectomy or paracetamol intoxication).
Following a midline laparotomy the liver was excised and weighed. Liver weight to body weight ratio was calculated and expressed as a percentage. Livers were fixed in 4% formalin overnight then transferred to 70% ethanol. Livers were then embedded in paraffin blocks and 4 μm sections cut. Immunohistochemistry for Ki67 (a marker of cellular proliferation expressed throughout the cell cycle) was performed following heat mediated antigen retrieval in Tris/EDTA solution at pH9. Hepatocyte proliferation was quantified by counting ki67 positive hepatocytes in 20 high powered fields (400×) per animal and the mean calculated.
The effects of Fc-CSF1 on liver regeneration in murine models of acute liver injury (partial hepatectomy; paracetamol intoxication) and acute-on-chronic liver injury (chronic liver injury plus partial hepatectomy) were studieD. The treatment group (n=8 per injury model) received 0.5 mcg/g Fc-CSF1 administered subcutaneously immediately following either partial hepatectomy or paracetamol intoxication and subsequently every 24 hours for three further doses. Control mice (n=8 per injury model) received subcutaneous PBS of appropriate volume. […]

[2] = 1 mg/kg, whole group or segregated for male or female
[3] = 0.12 mg/Kg×3, end of the experiment
[4] = day 2 following partial hepatectomy
[5] = all injury models, vs PBS control

B1: Fc-CSF-1: active fragment of porcine CSF-1 (SEQ ID NO:1) linked to the hinge-CH3 region of porcine IgG1a (SEQ ID NO:2) (protein, listed as Sus scrofa)
chain: SENCSHMIGDGHLKVLQQLIDSQMETSCQIAFEFVDQEQLTDPVCYLKKAFLQVQDILDETMRFRDNTPNANVIVQLQELSLRLNSCFTKDYEEQDKACVRTFYETPLQLLEKIKNVFNETKNLLKKDWNIFSKNCNNSFAKCSSQHERQPEGRGTKTKPPCPICPGCEVAGPSVFIFPPKPKDTLMISQTPEVTCVVVDVSKEHAEVQFSWYVDGVEVHTAETRPKEEQFNSTYRVVSVLPIQHQDWLKGKEFKCKVNNVDLPAPITRTISKAIGQSREPQVYTLPPPAEELSRSKVTVTCLVIGFYPPDIHVEWKSNGQPEPEGNYRTTPPQQDVDGTFFLYSKLAVDKARWDHGETFECAVMHEALHNHYTQKSISKTQGK
body weight, dose response curve ([1]; 0.1 mg/kg): detectable activity
total body weight ([1]; 1 mg/kg): clearly increased total body weight
total liver weight ([1]; 1 mg/kg): significantly increased
weight of the spleen ([1]; 1 mg/kg): almost doubled
weight of the kidney [1, 2]: no effect
weight of the lung [1, 2]: no effect
segmented neutrophil counts ([1]; blood): increases
total lymphocytes ([1]; blood): no effect
total blood monocyte count ([1]; blood, both sexes): elevates
white blood cell count ([1]; blood, both sexes): elevates
bone resorbing osteoclasts in bone ([1]; growth plate, zone of resorption and shaft, data not shown): increase
increase in abundance of macrophage-specific genes (csf1r, emr1 (F4/80)) ([1]; liver, Affymetrix microarrays): 4-8 fold
induction of classical inflammatory genes such as TNF-a, IL-6 or IL-1 ([1]; liver, Affymetrix microarrays): no evidence of induction
cell proliferation in liver, PCNA immunostaining ([1]; liver, proliferating cells identified as hepatocytes): extensive cell proliferation
macrophage numbers in liver, F4/80 immunostaining ([1]; liver, vs PBS control): large increase in macrophage numbers
numbers of macrophages in the spleen, csf1r-EGFP reporter fluorescence ([1]; spleen, treated vs control): greatly increased fluorescence
macrophage numbers and F4/80 intensity in spleen, immunostaining ([1]; spleen, vs PBS control): large increase in macrophage numbers and also intensity of F4/80
kidney weight (neonatal pigs; [3]): did not alter
liver weight (neonatal pigs; [3]): did not alter
lung weight (neonatal pigs; [3]): did not alter
spleen weight (neonatal pigs; [3]): did not alter
body weight gain (neonatal pigs; 0.12 mg/Kg×3 and 0.5 mg/Kg×6, any time point): little effect
granulocyte count (neonatal pigs; blood, vs control animals): increased
lymphocyte count (neonatal pigs; blood, vs control animals): increased
monocyte count (neonatal pigs; blood, vs control animals): increased
weight gain (neonatal pigs; higher dose (0.5 mg/Kg×6), data not shown): marginal decrease
histiocytes in the liver (pathology report) (neonatal pigs; liver): increased numbers
phagocytic ability of the liver, clearance of fluorescent latex microbeads from the circulation (C57BI6 male mice; 0.75 mg/kg, following partial hepatectomy): dramatically enhanced
fluorescent intensity of whole liver, ex vivo imaging (C57BI6 male mice; 15 minutes after bead injection, following partial hepatectomy): increased fluorescent intensity
MARCO gene expression, whole liver (C57BI6 male mice; [4]): upregulation
MSR1 (macrophage scavenger receptor 1) gene expression, whole liver (C57BI6 male mice; [4]): upregulation
hepatic weights (male C57BI6 mice; [5]): growth promoting effect
hepatocyte proliferation (male C57BI6 mice; [5]): growth promoting effect
tolerability of interventions and treatments (male C57BI6 mice; subcutaneously immediately after injury, then every 24 hours for three further doses): well tolerated
